Source: article PMC8836581, “A Microplate-Based Approach to Map Interactions between TDP-43 and α-Synuclein” (Journal of Clinical Medicine, 2022)

Key:
[1] = target: full length recombinant alpha synuclein (UniProt P37840 1-140); assay: ELISA; synthetic peptides (5 µg/mL in PBS, 10 mM EDTA) coupled through cysteine to maleimide-activated microplate wells, blocked with L-cysteine; 0.1 µg/mL recombinant protein added 1 h at 37 °C; biotinylated detection antibody, streptavidin-HRP, TMB, absorbance at 450 nm; conditions: both partners purified
[2] = target: T1, full length recombinant TDP-43 (UniProt Q13148 1-414); assay: as above; conditions: both partners purified
T1 construct: Called monomeric in the conventional ELISA; also called full-length TDP-43; source: recombinant
T1 sequence (Q13148 whole entry): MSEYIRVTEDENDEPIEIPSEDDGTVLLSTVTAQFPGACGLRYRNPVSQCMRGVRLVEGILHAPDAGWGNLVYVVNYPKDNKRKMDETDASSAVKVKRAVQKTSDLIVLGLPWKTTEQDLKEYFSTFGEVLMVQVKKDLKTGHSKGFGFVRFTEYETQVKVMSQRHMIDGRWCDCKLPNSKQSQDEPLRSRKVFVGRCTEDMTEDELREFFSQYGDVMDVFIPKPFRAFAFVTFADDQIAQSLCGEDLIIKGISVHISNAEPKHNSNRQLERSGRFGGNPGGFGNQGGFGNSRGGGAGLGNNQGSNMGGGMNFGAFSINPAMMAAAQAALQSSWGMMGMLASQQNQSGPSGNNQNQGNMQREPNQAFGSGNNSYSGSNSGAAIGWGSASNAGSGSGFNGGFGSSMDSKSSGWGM

Binder | binding result [1] | binding result [2]
GMNFGAFSINPAMMAAAQAA (That this stretch has no internal cysteine is my surmise; source: synthetic peptide (Lugen Sci Co., Ltd.)) [TDP-43 peptide 17 (aa 310–329)] | binds | 
EQVTNVGGAVVTGVTA (peptide, UniProt P37840 61-76, looked up, alpha synuclein residues 61-76, start of the non-amyloid β component (NAC); also called first 16 residues of the NAC; first 15 residues of the NAC region; source: synthetic peptide (Lugen Sci Co., Ltd.)) [α-synuclein peptide, amino acids 61–76] |  | binds
SNMGGGMNFGAFSINPAMM (source: synthetic peptide (Lugen Sci Co., Ltd.)) [TDP-43 overlapping peptide aa 305–323] | binds | 
